B1: TOX high mobility group box family member 3, residues 256 to 323; numbered along this chain, O15405 (parent)
chain: QKPVSAYALFFRDTQAAIKGQNPNATFGEVSKIVASMWDSLGEEQKQVYKRKTEAAKKEYLKALAAYR

The results in this text go back to the Human Domainome abundance scans (Beltran et al. 2025).

± gives the uncertainty stated by the source.

Variants of B1 are the subject of the data set. The data set is described as follows: abundance fitness (aPCA) (normalised: wild type 0, dead -1); higher = more abundant; growth selection in yeast, the domain comes from the species named. Particulars: Homo sapiens.
For the variant QKPVSAYALFFRDTQAAIKGQNPNATFGEVSKIVASMWDSLGEEQKQVYARKTEAAKKEYLKALAAYR, the abundance fitness was -0.15 ± 0.24.
The value for QKPVSAYALFFRDTQAAIKGQNPNATFGEVSKIVASMWDSLGEEQKQVYSRKTEAAKKEYLKALAAYR was -0.181 ± 0.36; that for QKPVSAYALFFRDTQAAIKGQNPNATFGEVSKIVASMWDSLGEEQKQVYRRKTEAAKKEYLKALAAYR was 0.079 ± 0.25.
As for QKPVSAYALFFRDTQAAIKGQNPNATFGEVSKIVASMWDSLGEEQKYVYKRKTEAAKKEYLKALAAYR, the abundance fitness was 0.029 ± 0.13.
The value for QKPVSAYALFFRDTQAAIKGQNPNATFGEVSKIVASMWDSLGEEQKVVYKRKTEAAKKEYLKALAAYR was -0.033 ± 0.086.
Then QKPVSAYALFFRDTQAAIKGQNPNATFGEVSKIVASMWDSLGEEQKRVYKRKTEAAKKEYLKALAAYR, with -0.032 ± 0.037; and QKPVSAYALFFRDTQAAIKGQNPNATFGEVSKIVASMWDSLGEEQKSVYKRKTEAAKKEYLKALAAYR, with -0.079 ± 0.054.
Turning to QKPVSAYALFFRDTQAAIKGQNPNATFGEVSKIVASMWDSLGEEQKNVYKRKTEAAKKEYLKALAAYR, the abundance fitness was found to be 0.102 ± 0.095.
The value for QKPVSAYALFFRDTQAAIKGQNPNATFGEVSKIVASMWDSLGEEQKTVYKRKTEAAKKEYLKALAAYR was -0.42 ± 0.14; that for QKPVSAYALFFRDTQAAIKGQNPNATFGEVSKIVASMWDSLGEEQKPVYKRKTEAAKKEYLKALAAYR was -0.812 ± 0.12.
The value for QKPVSAYALFFRDTQAAIKGQNPNATFGEVSKIVASMWDSLGEEQKQVYKRPTEAAKKEYLKALAAYR was -0.303 ± 0.079; that for QKPVSAYALFFRDTQAAIKGQNPNATFGEVSKIVASMWDSLGEEQKQVYKRATEAAKKEYLKALAAYR was -0.368 ± 0.055; that for QKPVSAYALFFRDTQAAIKGQNPNATFGEVSKIVASMWDSLGEEQKQVYKRNTEAAKKEYLKALAAYR was -0.133 ± 0.067.
Then QKPVSAYALFFRDTQAAIKGQNPNATFGEVSKIVASMWDSLGEEQKQVYKRTTEAAKKEYLKALAAYR, with -0.426 ± 0.065.
With QKPVSAYALFFRDTQAAIKGQNPNATFGEVSKIVASMWDSLGEEQKQVYKRETEAAKKEYLKALAAYR, the abundance fitness was -0.219 ± 0.07.
Regarding QKPVSAYALFFRDTQAAIKGQNPNATFGEVSKIVASMWDSLGEEQKQVYKRMTEAAKKEYLKALAAYR, the abundance fitness is -0.373 ± 0.074.
The value for QKPVSAYALFFRDTQAAIKGQNPNATFGEVSKIVASMWDSLGEEQKQVYKRDTEAAKKEYLKALAAYR was -0.404 ± 0.078.
The value for QKPVSAYALFFRDTQAAIKGQNPNATFGEVSKIVASMWDSLGEEQKQVYKRGTEAAKKEYLKALAAYR was -0.474 ± 0.072.
Then QKPVSAYALFFRDTQAAIKGQNPNATFGEVSKIVASMWDSLGEEQKQVYKRHTEAAKKEYLKALAAYR, with -0.272 ± 0.066; and QKPVSAYALFFRDTQAAIKGQNPNATFGEVSKIVASMWDSLGEEQKQVYKRCTEAAKKEYLKALAAYR, with -0.547 ± 0.086.
As to QKPVSAYALFFRDTQAAIKGQNPNATFGEVSKIVASMWDSLGEEQKQVYKRWTEAAKKEYLKALAAYR, the abundance fitness was -0.617 ± 0.1.
Then QKPVSAYALFFRDTQAAIKGQNPNATFGEVSKIVASMWDSLGEEQKQVYKRYTEAAKKEYLKALAAYR, with -0.28 ± 0.073; and QKPVSAYALFFRDTQAAIKGQNPNATFGEVSKIVASMWDSLGEEQKQVYKRSTEAAKKEYLKALAAYR, with -0.145 ± 0.04.
The value for QKPVSAYALFFRDTQAAIKGQNPNATFGEVSKIVASMWDSLGEEQKQVYKRITEAAKKEYLKALAAYR was -0.652 ± 0.081; that for QKPVSAYALFFRDTQAAIKGQNPNATFGEVSKIVASMWDSLGEEQKQVYKRVTEAAKKEYLKALAAYR was -0.584 ± 0.072; that for QKPVSAYALFFRDTQAAIKGQNPNATFGEVSKIVASMWDSLGEEQKQVYKRRTEAAKKEYLKALAAYR was 0.008 ± 0.042.
The value for QKPVSAYALFFRDTQAAIKGQNPNATFGEVSKIVASMWDSLGEEQKQVYKRQTEAAKKEYLKALAAYR was -0.291 ± 0.071; that for QKPVSAYALFFRDTQAAIKGQNPNATFGEVSKIVASMWDSLGEEQKQVYKRFTEAAKKEYLKALAAYR was -0.93 ± 0.17; that for QKPVSAYALFFRDTQAAIKGQNPNATFGEVSKIVASMWDSLGEEQKQIYKRKTEAAKKEYLKALAAYR was -0.133 ± 0.19.
With QKPVSAYALFFRDTQAAIKGQNPNATFGEVSKIVASMWDSLGEEQKQGYKRKTEAAKKEYLKALAAYR, the abundance fitness was 0.505 ± 0.26.
The value for QKPVSAYALFFRDTQAAIKGQNPNATFGEVSKIVASMWDSLGEEQKQVYKRKTRAAKKEYLKALAAYR was -0.203 ± 0.048; that for QKPVSAYALFFRDTQAAIKGQNPNATFGEVSKIVASMWDSLGEEQKQVYKRKTTAAKKEYLKALAAYR was -0.237 ± 0.064.
Then QKPVSAYALFFRDTQAAIKGQNPNATFGEVSKIVASMWDSLGEEQKQVYKRKTFAAKKEYLKALAAYR, with -0.193 ± 0.072; and QKPVSAYALFFRDTQAAIKGQNPNATFGEVSKIVASMWDSLGEEQKQVYKRKTGAAKKEYLKALAAYR, with -0.328 ± 0.046.
Then QKPVSAYALFFRDTQAAIKGQNPNATFGEVSKIVASMWDSLGEEQKQVYKRKTSAAKKEYLKALAAYR, with -0.211 ± 0.052; and QKPVSAYALFFRDTQAAIKGQNPNATFGEVSKIVASMWDSLGEEQKQVYKRKTDAAKKEYLKALAAYR, with -0.054 ± 0.068.
Consider QKPVSAYALFFRDTQAAIKGQNPNATFGEVSKIVASMWDSLGEEQKQVYKRKTVAAKKEYLKALAAYR, for which the abundance fitness is -0.239 ± 0.053.
The value for QKPVSAYALFFRDTQAAIKGQNPNATFGEVSKIVASMWDSLGEEQKQVYKRKTMAAKKEYLKALAAYR was -0.161 ± 0.064; that for QKPVSAYALFFRDTQAAIKGQNPNATFGEVSKIVASMWDSLGEEQKQVYKRKTLAAKKEYLKALAAYR was -0.102 ± 0.045; that for QKPVSAYALFFRDTQAAIKGQNPNATFGEVSKIVASMWDSLGEEQKQVYKRKTNAAKKEYLKALAAYR was -0.117 ± 0.07.
The value for QKPVSAYALFFRDTQAAIKGQNPNATFGEVSKIVASMWDSLGEEQKQVYKRKTCAAKKEYLKALAAYR was -0.244 ± 0.084.
The value for QKPVSAYALFFRDTQAAIKGQNPNATFGEVSKIVASMWDSLGEEQKQVYKRKTQAAKKEYLKALAAYR was -0.158 ± 0.07.
Turning to QKPVSAYALFFRDTQAAIKGQNPNATFGEVSKIVASMWDSLGEEQKQVYKRKTPAAKKEYLKALAAYR, the abundance fitness was -0.118 ± 0.055.
Regarding QKPVSAYALFFRDTQAAIKGQNPNATFGEVSKIVASMWDSLGEEQKQVYKRKTIAAKKEYLKALAAYR, the abundance fitness was -0.012 ± 0.082.
The value for QKPVSAYALFFRDTQAAIKGQNPNATFGEVSKIVASMWDSLGEEQKQVYKAKTEAAKKEYLKALAAYR was -0.031 ± 0.049; that for QKPVSAYALFFRDTQAAIKGQNPNATFGEVSKIVASMWDSLGEEQKQVYKPKTEAAKKEYLKALAAYR was -0.225 ± 0.059; that for QKPVSAYALFFRDTQAAIKGQNPNATFGEVSKIVASMWDSLGEEQKQVYKHKTEAAKKEYLKALAAYR was -0.018 ± 0.054.
The value for QKPVSAYALFFRDTQAAIKGQNPNATFGEVSKIVASMWDSLGEEQKQVYKYKTEAAKKEYLKALAAYR was -0.199 ± 0.096; that for QKPVSAYALFFRDTQAAIKGQNPNATFGEVSKIVASMWDSLGEEQKQVYKTKTEAAKKEYLKALAAYR was 0.042 ± 0.047; that for QKPVSAYALFFRDTQAAIKGQNPNATFGEVSKIVASMWDSLGEEQKQVYKKKTEAAKKEYLKALAAYR was 0.05 ± 0.084.
Then QKPVSAYALFFRDTQAAIKGQNPNATFGEVSKIVASMWDSLGEEQKQVYKWKTEAAKKEYLKALAAYR, with -0.079 ± 0.057.
In the case of QKPVSAYALFFRDTQAAIKGQNPNATFGEVSKIVASMWDSLGEEQKQVYKFKTEAAKKEYLKALAAYR, the abundance fitness is -0.256 ± 0.066.
Then QKPVSAYALFFRDTQAAIKGQNPNATFGEVSKIVASMWDSLGEEQKQVYKDKTEAAKKEYLKALAAYR, with 0.101 ± 0.083; and QKPVSAYALFFRDTQAAIKGQNPNATFGEVSKIVASMWDSLGEEQKQVYKGKTEAAKKEYLKALAAYR, with -0.032 ± 0.049.
Regarding QKPVSAYALFFRDTQAAIKGQNPNATFGEVSKIVASMWDSLGEEQKQVYKVKTEAAKKEYLKALAAYR, the abundance fitness is -0.072 ± 0.055.
Then QKPVSAYALFFRDTQAAIKGQNPNATFGEVSKIVASMWDSLGEEQKQVYKQKTEAAKKEYLKALAAYR, with -0.041 ± 0.058; and QKPVSAYALFFRDTQAAIKGQNPNATFGEVSKIVASMWDSLGEEQKQVYKLKTEAAKKEYLKALAAYR, with 0.021 ± 0.04.
Then QKPVSAYALFFRDTQAAIKGQNPNATFGEVSKIVASMWDSLGEEQKQVYKMKTEAAKKEYLKALAAYR, with -0.069 ± 0.056; and QKPVSAYALFFRDTQAAIKGQNPNATFGEVSKIVASMWDSLGEEQKQVYKSKTEAAKKEYLKALAAYR, with -0.02 ± 0.044; and QKPVSAYALFFRDTQAAIKGQNPNATFGEVSKIVASMWDSLGEEQKQVYKNKTEAAKKEYLKALAAYR, with -0.017 ± 0.052.
QKPVSAYALFFRDTQAAIKGQNPNATFGEVSKIVASMWDSLGEEQKQVYKEKTEAAKKEYLKALAAYR: the abundance fitness worked out at 0.222 ± 0.079.
The value for QKPVSAYALFFRDTQAAIKGQNPNATFGEVSKIVASMWDSLGEEQKQVYKIKTEAAKKEYLKALAAYR was -0.175 ± 0.082; that for QKPVSAYALFFRDTQAAIKGQNPNATFGEVSKIVASMWDSLGEEQKQVYKRKMEAAKKEYLKALAAYR was -0.046 ± 0.096.
The value for QKPVSAYALFFRDTQAAIKGQNPNATFGEVSKIVASMWDSLGEEQKQVYKRKKEAAKKEYLKALAAYR was 0.001 ± 0.098.
The value for QKPVSAYALFFRDTQAAIKGQNPNATFGEVSKIVASMWDSLGEEQKQVYKRKDEAAKKEYLKALAAYR was -0.022 ± 0.066.
Turning to QKPVSAYALFFRDTQAAIKGQNPNATFGEVSKIVASMWDSLGEEQKQVYKRKGEAAKKEYLKALAAYR, the abundance fitness came out at 0.073 ± 0.049.
Then QKPVSAYALFFRDTQAAIKGQNPNATFGEVSKIVASMWDSLGEEQKQVYKRKLEAAKKEYLKALAAYR, with -0.09 ± 0.038.
In the case of QKPVSAYALFFRDTQAAIKGQNPNATFGEVSKIVASMWDSLGEEQKQVYKRKVEAAKKEYLKALAAYR, the abundance fitness amounted to 0.146 ± 0.047.
QKPVSAYALFFRDTQAAIKGQNPNATFGEVSKIVASMWDSLGEEQKQVYKRKSEAAKKEYLKALAAYR: the abundance fitness amounted to 0.113 ± 0.048.
As to QKPVSAYALFFRDTQAAIKGQNPNATFGEVSKIVASMWDSLGEEQKQVYKRKNEAAKKEYLKALAAYR, the abundance fitness is -0.104 ± 0.056.
Then QKPVSAYALFFRDTQAAIKGQNPNATFGEVSKIVASMWDSLGEEQKQVYKRKAEAAKKEYLKALAAYR, with 0.136 ± 0.053; and QKPVSAYALFFRDTQAAIKGQNPNATFGEVSKIVASMWDSLGEEQKQVYKRKWEAAKKEYLKALAAYR, with -0.152 ± 0.055; and QKPVSAYALFFRDTQAAIKGQNPNATFGEVSKIVASMWDSLGEEQKQVYKRKHEAAKKEYLKALAAYR, with 0.12 ± 0.091.
As for QKPVSAYALFFRDTQAAIKGQNPNATFGEVSKIVASMWDSLGEEQKQVYKRKREAAKKEYLKALAAYR, the abundance fitness was -0.111 ± 0.043.
On to QKPVSAYALFFRDTQAAIKGQNPNATFGEVSKIVASMWDSLGEEQKQVYKRKPEAAKKEYLKALAAYR, for which the abundance fitness was -0.326 ± 0.076.
The value for QKPVSAYALFFRDTQAAIKGQNPNATFGEVSKIVASMWDSLGEEQKQVYKRKEEAAKKEYLKALAAYR was 0.257 ± 0.063.
The value for QKPVSAYALFFRDTQAAIKGQNPNATFGEVSKIVASMWDSLGEEQKQVYKRKCEAAKKEYLKALAAYR was -0.092 ± 0.063; that for QKPVSAYALFFRDTQAAIKGQNPNATFGEVSKIVASMWDSLGEEQKQVYKRKYEAAKKEYLKALAAYR was 0.276 ± 0.094.
On to QKPVSAYALFFRDTQAAIKGQNPNATFGEVSKIVASMWDSLGEEQKQVYKRKFEAAKKEYLKALAAYR, for which the abundance fitness was 0.157 ± 0.11.
